Holding throughout (test): cell-based or functional assay
One test deals with MMP13 (human, UniProt P45452 104-471, limits assumed).
The next test deals with T1, ADAMTS4 (human, UniProt O75173 213-685, limits assumed).
T1 sequence (looked up): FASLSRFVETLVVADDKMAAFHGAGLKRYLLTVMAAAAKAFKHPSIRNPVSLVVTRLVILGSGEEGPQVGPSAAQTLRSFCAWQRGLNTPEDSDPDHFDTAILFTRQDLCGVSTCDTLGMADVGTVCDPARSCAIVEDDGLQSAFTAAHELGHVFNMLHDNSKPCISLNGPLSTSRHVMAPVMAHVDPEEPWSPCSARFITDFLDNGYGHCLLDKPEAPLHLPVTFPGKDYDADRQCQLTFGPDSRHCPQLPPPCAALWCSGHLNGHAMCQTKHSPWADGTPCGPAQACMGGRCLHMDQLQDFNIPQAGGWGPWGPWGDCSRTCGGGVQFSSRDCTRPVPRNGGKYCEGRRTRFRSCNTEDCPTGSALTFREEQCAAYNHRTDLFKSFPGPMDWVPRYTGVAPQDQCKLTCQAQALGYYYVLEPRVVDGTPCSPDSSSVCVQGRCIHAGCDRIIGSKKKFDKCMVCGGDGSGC

The target in a further test is T2, ADAMTS5 (human, UniProt Q9UNA0 262-622, limits assumed).
T2 sequence (looked up): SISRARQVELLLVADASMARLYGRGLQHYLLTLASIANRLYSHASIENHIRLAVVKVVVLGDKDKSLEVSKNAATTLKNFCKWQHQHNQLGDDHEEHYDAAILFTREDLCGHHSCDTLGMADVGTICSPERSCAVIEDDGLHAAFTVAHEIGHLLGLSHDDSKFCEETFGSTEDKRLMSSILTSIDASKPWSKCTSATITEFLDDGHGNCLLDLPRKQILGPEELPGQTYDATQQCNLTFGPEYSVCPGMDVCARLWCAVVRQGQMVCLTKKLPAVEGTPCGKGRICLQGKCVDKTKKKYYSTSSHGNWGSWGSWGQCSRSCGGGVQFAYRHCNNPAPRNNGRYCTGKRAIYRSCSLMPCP

B1: Variant A2M, bait region SEQ ID NO 120 (other)
chain: SVSGKPQYMVLVPSLLHTETTEKGCVLLSYLNETVTVSASLESVRGNRSLFTDLEAENDVLHCVAFAVPKSSSNEEVMFLTVQVKGPTQEFKKRTTVMVKNEDSLVFVQTDKSIYKPGQTVKFRVVSMDENFHPLNELIPLVYIQDPKGNRIAQWQSFQLEGGLKQFSFPLSSEPFQGSYKVVVQKKSGGRTEHPFTVEEFVLPKFEVQVTVPKIITILEEEMNVSVCGLYTYGKPVPGHVTVSICRKYSDASDCHGEDSQAFCEKFSGQLNSHGCFYQQVKTKVFQLKRKEYEMKLHTEAQIQEEGTVVELTGRQSSEITRTITKLSFVKVDSHFRQGIPFFGQVRLVDGKGVPIPNKVIFIRGNEANYYSNATTDEHGLVQFSINTTNVMGTSLTVRVNYKDRSPCYGYQWVSEEHEEAHHTAYLVFSPSKSFVHLEPMSHELPCGHTQTVQAHYILNGGTLLGLKKLSFYYLIMAKGGIVRTGTHGLLVKQEDMKGHFSISIPVKSDIAPVARLLIYAVLPTGDVIGDSAKYDVENCLANKVDLSFSPSQSLPASHAHLRVTAAPQSVCALRAVDQSVLLMKPDAELSASSVYNLLPEKDLTGFPGPLNDQDDEDCINRHNVYINGITYTPVSSTNEKDMYSFLEDMGLKAFTNSKIRKPKMCPQLEEEGVEEGKEEEGLGSGPAGAARGSELEGRGSPTEGEARGSKLRKYFPETWIWDLVVVNSAGVAEVGVTVPDTITEWKAGAFCLSEDAGLGISSTASLRAFQPFFVELTMPYSVIRGEAFTLKATVLNYLPKCIRVSVQLEASPAFLAVPVEKEQAPHCICANGRQTVSWAVTPKSLGNVNFTVSAEALESQELCGTEVPSVPEHGRKDTVIKPLLVEPEGLEKETTFNSLLCPSGGEVSEELSLKLPPNVVEESARASVSVLGDILGSAMQNTQNLLQMPYGCGEQNMVLFAPNIYVLDYLNETQQLTPEIKSKAIGYLNTGYQRQLNYKHYDGSYSTFGERYGRNQGNTWLTAFVLKTFAQARAYIFIDEAHITQALIWLSQRQKDNGCFRSSGSLLNNAIKGGVEDEVTLSAYITIALLEIPLTVTHPVVRNALFCLESAWKTAQEGDHGSHVYTKALLAYAFALAGNQDKRKEVLKSLNEEAVKKDNSVHWERPQKPKAPVGHFYEPQAPSAEVEMTSYVLLAYLTAQPAPTSEDLTSATNIVKWITKQQNAQGGFSSTQDTVVALHALSKYGAATFTRTGKAAQVTIQSSGTFSSKFQVDNNNRLLLQQVSLPELPGEYSMKVTGEGCVYLQTSLKYNILPEKEEFPFALGVQTLPQTCDEPKAHTSFQISLSVSYTGSRSASNMAIVDVKMVSGFIPLKPTVKMLERSNHVSRTEVSSNHVLIYLDKVSNQTLSLFFTVLQDVPVRDLKPAIVKVYDYYETDEFAIAEYNAPCSKDLGNADYKDDDDKGASHHHHHH
Take B1: the results for the “Protease Inhibition (% of WT)” value with MMP13, in the test with ADAMTS4 and with ADAMTS5 were 121 % of WT, 88 % of WT and 100 % of WT, respectively.
